In publication PMC4883770:

Target: Flag-epitope tagged CncC (Drosophila melanogaster) (UniProt P20482)
Sequence (P20482 whole entry): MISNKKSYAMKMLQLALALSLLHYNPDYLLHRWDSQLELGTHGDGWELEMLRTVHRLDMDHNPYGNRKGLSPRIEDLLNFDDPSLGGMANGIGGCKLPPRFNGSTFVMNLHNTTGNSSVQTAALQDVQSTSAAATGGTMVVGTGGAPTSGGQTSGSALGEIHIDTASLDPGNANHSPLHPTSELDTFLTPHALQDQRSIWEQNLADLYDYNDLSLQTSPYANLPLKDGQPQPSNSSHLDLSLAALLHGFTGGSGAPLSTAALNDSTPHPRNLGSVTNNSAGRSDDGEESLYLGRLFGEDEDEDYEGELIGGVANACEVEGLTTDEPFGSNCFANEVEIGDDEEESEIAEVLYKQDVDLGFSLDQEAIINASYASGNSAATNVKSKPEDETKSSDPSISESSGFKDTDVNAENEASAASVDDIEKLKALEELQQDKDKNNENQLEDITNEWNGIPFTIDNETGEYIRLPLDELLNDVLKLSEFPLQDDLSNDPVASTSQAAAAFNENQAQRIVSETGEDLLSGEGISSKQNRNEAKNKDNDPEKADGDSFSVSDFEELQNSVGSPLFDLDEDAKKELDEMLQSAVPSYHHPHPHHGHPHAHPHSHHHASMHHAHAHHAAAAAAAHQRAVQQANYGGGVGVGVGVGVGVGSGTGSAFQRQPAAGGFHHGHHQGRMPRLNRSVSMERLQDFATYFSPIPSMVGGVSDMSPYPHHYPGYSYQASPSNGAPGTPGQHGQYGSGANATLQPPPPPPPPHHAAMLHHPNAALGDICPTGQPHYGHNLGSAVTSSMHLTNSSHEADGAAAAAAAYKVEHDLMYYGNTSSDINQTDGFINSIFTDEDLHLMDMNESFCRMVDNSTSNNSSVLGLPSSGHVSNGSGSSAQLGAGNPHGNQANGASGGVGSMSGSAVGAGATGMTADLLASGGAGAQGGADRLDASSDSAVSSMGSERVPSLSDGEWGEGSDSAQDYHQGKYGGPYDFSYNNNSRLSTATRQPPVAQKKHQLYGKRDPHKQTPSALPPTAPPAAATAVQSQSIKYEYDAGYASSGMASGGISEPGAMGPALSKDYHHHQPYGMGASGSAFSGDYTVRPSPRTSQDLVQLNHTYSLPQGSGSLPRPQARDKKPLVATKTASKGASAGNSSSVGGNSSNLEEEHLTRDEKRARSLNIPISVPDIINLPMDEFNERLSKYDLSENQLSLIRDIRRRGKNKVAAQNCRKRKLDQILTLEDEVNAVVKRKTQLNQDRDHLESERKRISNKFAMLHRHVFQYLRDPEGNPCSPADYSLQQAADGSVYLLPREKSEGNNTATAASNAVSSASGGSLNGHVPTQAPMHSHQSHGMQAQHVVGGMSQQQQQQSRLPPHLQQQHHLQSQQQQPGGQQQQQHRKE

Sequence of Fs(1)h-L, the long isoform of Fs(1)h (female sterile (1) homeotic), P13709 1-2038 (natural protein; acetylated lysines (shown with a generic anti-acetyl lysine antibody; residues not named)) (P13709 whole entry, canonical isoform): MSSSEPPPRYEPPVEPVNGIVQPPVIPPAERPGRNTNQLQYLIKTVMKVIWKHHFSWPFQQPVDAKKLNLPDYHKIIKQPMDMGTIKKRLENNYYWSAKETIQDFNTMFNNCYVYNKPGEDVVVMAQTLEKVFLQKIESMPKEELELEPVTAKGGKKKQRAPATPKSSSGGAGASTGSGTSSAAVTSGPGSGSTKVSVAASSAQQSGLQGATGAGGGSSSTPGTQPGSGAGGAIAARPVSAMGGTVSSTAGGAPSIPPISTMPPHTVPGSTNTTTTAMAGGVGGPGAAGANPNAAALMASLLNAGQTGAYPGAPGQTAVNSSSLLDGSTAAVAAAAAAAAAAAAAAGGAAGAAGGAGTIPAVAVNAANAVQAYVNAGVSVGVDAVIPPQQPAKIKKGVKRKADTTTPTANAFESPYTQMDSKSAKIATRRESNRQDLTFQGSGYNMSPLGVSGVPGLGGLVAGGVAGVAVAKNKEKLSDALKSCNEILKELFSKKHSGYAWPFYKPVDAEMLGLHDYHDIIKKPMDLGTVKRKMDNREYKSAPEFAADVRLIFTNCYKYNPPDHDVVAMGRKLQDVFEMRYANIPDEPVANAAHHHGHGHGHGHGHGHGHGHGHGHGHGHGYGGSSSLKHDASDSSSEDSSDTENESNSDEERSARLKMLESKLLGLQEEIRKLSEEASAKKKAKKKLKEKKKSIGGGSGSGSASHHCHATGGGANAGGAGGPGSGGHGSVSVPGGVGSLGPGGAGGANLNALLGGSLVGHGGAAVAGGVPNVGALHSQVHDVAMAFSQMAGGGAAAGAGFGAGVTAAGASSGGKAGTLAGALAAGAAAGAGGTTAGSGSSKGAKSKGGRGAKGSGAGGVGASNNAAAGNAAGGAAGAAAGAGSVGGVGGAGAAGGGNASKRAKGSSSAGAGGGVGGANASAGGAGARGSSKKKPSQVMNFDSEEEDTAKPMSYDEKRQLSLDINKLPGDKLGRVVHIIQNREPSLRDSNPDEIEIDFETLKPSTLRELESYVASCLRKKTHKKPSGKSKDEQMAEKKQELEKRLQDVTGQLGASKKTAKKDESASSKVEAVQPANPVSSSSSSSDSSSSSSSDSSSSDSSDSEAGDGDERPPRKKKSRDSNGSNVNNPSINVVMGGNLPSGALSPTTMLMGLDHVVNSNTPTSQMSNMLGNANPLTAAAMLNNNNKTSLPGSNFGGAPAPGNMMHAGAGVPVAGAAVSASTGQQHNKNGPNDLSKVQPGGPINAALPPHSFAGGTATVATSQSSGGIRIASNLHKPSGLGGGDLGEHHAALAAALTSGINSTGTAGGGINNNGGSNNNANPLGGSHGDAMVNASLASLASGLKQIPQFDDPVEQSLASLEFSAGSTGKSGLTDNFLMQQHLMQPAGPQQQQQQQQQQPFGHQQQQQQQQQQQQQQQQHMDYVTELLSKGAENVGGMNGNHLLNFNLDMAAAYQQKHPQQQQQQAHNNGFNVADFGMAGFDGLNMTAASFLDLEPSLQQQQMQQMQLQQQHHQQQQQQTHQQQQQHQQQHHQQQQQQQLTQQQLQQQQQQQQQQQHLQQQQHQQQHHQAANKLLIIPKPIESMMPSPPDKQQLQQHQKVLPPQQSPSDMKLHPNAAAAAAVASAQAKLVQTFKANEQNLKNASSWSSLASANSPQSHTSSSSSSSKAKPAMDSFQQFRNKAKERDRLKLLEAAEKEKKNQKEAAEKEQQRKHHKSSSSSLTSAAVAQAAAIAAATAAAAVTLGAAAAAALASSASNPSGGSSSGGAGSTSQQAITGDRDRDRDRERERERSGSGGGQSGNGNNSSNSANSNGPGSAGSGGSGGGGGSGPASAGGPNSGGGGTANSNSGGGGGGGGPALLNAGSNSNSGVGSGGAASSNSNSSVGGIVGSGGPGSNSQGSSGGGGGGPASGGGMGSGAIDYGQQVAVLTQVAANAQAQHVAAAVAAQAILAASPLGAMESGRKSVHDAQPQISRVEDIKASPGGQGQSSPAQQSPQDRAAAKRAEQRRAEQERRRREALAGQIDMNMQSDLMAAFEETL

ARE-fluc reporter activity in S2 cells treated with 1μM JQ1 for 24 hrs, fold change relative to controls: 6.5 fold
Substance: Fs(1)h-L, the long isoform of Fs(1)h (female sterile (1) homeotic), P13709 1-2038 (natural protein; acetylated lysines (shown with a generic anti-acetyl lysine antibody; residues not named))
